To fix the notation:
B1: humanized 16H11-derived Fab, VH AK449-6 / VL AK418-2 (Fab, V domains shown)
VH: QVQLVQSGAEVKKPGSSVKVSCKGSGYDFSNFWMNWVRQAPGQGLEWMGGIYPGDGEIKYNQKFQGRVTITADESTSTAYMELSSLRSEDTAVYYCARDDYLRAMDIWGQGTMVTVSS
VL: DIQMTQSPSSLSASVGDRVTITCRASGNIHNYLAWYQQKPGKAPKFLLYSAKRLESGVPSRFSGSGSGTDYTLTISSLQPEDFATYYCQHFWSSPYTFGGGTKVEIK
notes: Measured as monovalent Fab; also called No. 30; VH449-6 and VL418-2
B2: humanized 16H11-derived Fab, VH AK465-17 / VL AK419-2 (Fab, V domains shown)
VH: QVQLVQSGAEVKKPGSSVKVSCKASGYDFSNFWMNWVRQAPGQGLEWMGQIYPGDGEIKYAQKFQGRVTITADESTSTAYMELSSLRSEDTAVYYCARDDYLRAMDIWGQGTMVTVSS
VL: DIQMTQSPSSLSASVGDRVTITCRASQNIHNYLAWYQQKPGKAPKFLLYSAKRLESGVPSRFSGSGSGTDYTLTISSLQPEDFATYYCQHFWSSPYTFGGGTKVEIK
notes: Measured as monovalent Fab; also called No. 40
B3: humanized 16H11-derived Fab, VH AK463-2 / VL AK418-2 (Fab, V domains shown)
VH: QVQLVQSGAEVKKPGSSVKVSCKASGYDFSNFWMNWVRQAPGQGLEWMGQIYPGDGEIKYNQKFQGRVTITADESTSTAYMELSSLRSEDTAVYYCARDDYLRAMDYWGQGTLVTVSS
VL: DIQMTQSPSSLSASVGDRVTITCRASGNIHNYLAWYQQKPGKAPKFLLYSAKRLESGVPSRFSGSGSGTDYTLTISSLQPEDFATYYCQHFWSSPYTFGGGTKVEIK
notes: Measured as monovalent Fab; also called No. 35; VH463-2 and VL418-2
B4: humanized 16H11-derived Fab, VH AK484-7 / VL AK448-3 (Fab, V domains shown)
VH: QVQLVQSGAEVKKPGSSVKVSCKASGYDFSNYWMNWVRQAPGQGLEWMGQIYPGDGEIKYNQKFQGRVTITADESTSTAYMELSSLRSEDTAVYYCARDDYLRAMDYWGQGTLVTVSS
VL: DIQMTQSPSSLSASVGDRVTITCRASQNIHNYLAWYQQKPGKAPKFLLYSAKRLESGVPSRFSGSGSGTDYTLTISSLQPEDFATYYCQHFWSSPYTFGQGTKLEIK
notes: Measured as monovalent Fab; also called No. 44; VH484-7 and VL448-3
B5: humanized 16H11-derived Fab, VH AK485-5 / VL AK418-2 (Fab, V domains shown)
VH: QVQLVQSGAEVKKPGSSVKVSCKASGYDFSNFAMNWVRQAPGQGLEWMGQIYPGDGEIKYNQKFQGRVTITADESTSTAYMELSSLRSEDTAVYYCARDDYLRAMDIWGQGTMVTVSS
VL: DIQMTQSPSSLSASVGDRVTITCRASGNIHNYLAWYQQKPGKAPKFLLYSAKRLESGVPSRFSGSGSGTDYTLTISSLQPEDFATYYCQHFWSSPYTFGGGTKVEIK
notes: Measured as monovalent Fab; also called No. 45
B6: humanized 16H11-derived Fab, VH AK484-6 / VL AK448-3 (Fab, V domains shown)
VH: QVQLVQSGAEVKKPGSSVKVSCKASGYDFSNYWMNWVRQAPGQGLEWMGQIYPGDGEIKYNQKFQGRVTITADESTSTAYMELSSLRSEDTAVYYCARDDYLRAMDIWGQGTMVTVSS
VL: DIQMTQSPSSLSASVGDRVTITCRASQNIHNYLAWYQQKPGKAPKFLLYSAKRLESGVPSRFSGSGSGTDYTLTISSLQPEDFATYYCQHFWSSPYTFGQGTKLEIK
notes: Measured as monovalent Fab; also called No. 43; VH484-6 and VL448-3
B7: humanized 16H11-derived Fab, VH AK449-6 / VL AK448-3 (Fab, V domains shown)
VH: QVQLVQSGAEVKKPGSSVKVSCKGSGYDFSNFWMNWVRQAPGQGLEWMGGIYPGDGEIKYNQKFQGRVTITADESTSTAYMELSSLRSEDTAVYYCARDDYLRAMDIWGQGTMVTVSS
VL: DIQMTQSPSSLSASVGDRVTITCRASQNIHNYLAWYQQKPGKAPKFLLYSAKRLESGVPSRFSGSGSGTDYTLTISSLQPEDFATYYCQHFWSSPYTFGQGTKLEIK
notes: Measured as monovalent Fab; also called No. 31
B8: humanized 16H11-derived Fab, VH AK485-4 / VL AK448-3 (Fab, V domains shown)
VH: QVQLVQSGAEVKKPGSSVKVSCKASGYDFSNFAMNWVRQAPGQGLEWMGQIYPGDGEIKYNQKFQGRVTITADESTSTAYMELSSLRSEDTAVYYCARDDYLRAMDYWGQGTLVTVSS
VL: DIQMTQSPSSLSASVGDRVTITCRASQNIHNYLAWYQQKPGKAPKFLLYSAKRLESGVPSRFSGSGSGTDYTLTISSLQPEDFATYYCQHFWSSPYTFGQGTKLEIK
notes: Measured as monovalent Fab; also called No. 47
B9: humanized 16H11-derived Fab, VH AK463-2 / VL AK419-2 (Fab, V domains shown)
VH: QVQLVQSGAEVKKPGSSVKVSCKASGYDFSNFWMNWVRQAPGQGLEWMGQIYPGDGEIKYNQKFQGRVTITADESTSTAYMELSSLRSEDTAVYYCARDDYLRAMDYWGQGTLVTVSS
VL: DIQMTQSPSSLSASVGDRVTITCRASQNIHNYLAWYQQKPGKAPKFLLYSAKRLESGVPSRFSGSGSGTDYTLTISSLQPEDFATYYCQHFWSSPYTFGGGTKVEIK
notes: Measured as monovalent Fab; also called No. 38
B10: humanized 16H11-derived Fab, VH AK485-5 / VL AK448-3 (Fab, V domains shown)
VH: QVQLVQSGAEVKKPGSSVKVSCKASGYDFSNFAMNWVRQAPGQGLEWMGQIYPGDGEIKYNQKFQGRVTITADESTSTAYMELSSLRSEDTAVYYCARDDYLRAMDIWGQGTMVTVSS
VL: DIQMTQSPSSLSASVGDRVTITCRASQNIHNYLAWYQQKPGKAPKFLLYSAKRLESGVPSRFSGSGSGTDYTLTISSLQPEDFATYYCQHFWSSPYTFGQGTKLEIK
notes: Measured as monovalent Fab; also called No. 46
B11: humanized 16H11-derived Fab, VH AK465-17 / VL AK448-3 (Fab, V domains shown)
VH: QVQLVQSGAEVKKPGSSVKVSCKASGYDFSNFWMNWVRQAPGQGLEWMGQIYPGDGEIKYAQKFQGRVTITADESTSTAYMELSSLRSEDTAVYYCARDDYLRAMDIWGQGTMVTVSS
VL: DIQMTQSPSSLSASVGDRVTITCRASQNIHNYLAWYQQKPGKAPKFLLYSAKRLESGVPSRFSGSGSGTDYTLTISSLQPEDFATYYCQHFWSSPYTFGQGTKLEIK
notes: Measured as monovalent Fab; also called No. 41
B12: humanized 16H11-derived Fab, VH AK465-17 / VL AK418-2 (Fab, V domains shown)
VH: QVQLVQSGAEVKKPGSSVKVSCKASGYDFSNFWMNWVRQAPGQGLEWMGQIYPGDGEIKYAQKFQGRVTITADESTSTAYMELSSLRSEDTAVYYCARDDYLRAMDIWGQGTMVTVSS
VL: DIQMTQSPSSLSASVGDRVTITCRASGNIHNYLAWYQQKPGKAPKFLLYSAKRLESGVPSRFSGSGSGTDYTLTISSLQPEDFATYYCQHFWSSPYTFGGGTKVEIK
notes: Measured as monovalent Fab; also called No. 39; FH465-17 and VL418-2
B13: humanized 16H11-derived Fab, VH AK463-2 / VL AK448-3 (Fab, V domains shown)
VH: QVQLVQSGAEVKKPGSSVKVSCKASGYDFSNFWMNWVRQAPGQGLEWMGQIYPGDGEIKYNQKFQGRVTITADESTSTAYMELSSLRSEDTAVYYCARDDYLRAMDYWGQGTLVTVSS
VL: DIQMTQSPSSLSASVGDRVTITCRASQNIHNYLAWYQQKPGKAPKFLLYSAKRLESGVPSRFSGSGSGTDYTLTISSLQPEDFATYYCQHFWSSPYTFGQGTKLEIK
notes: Measured as monovalent Fab; also called No. 36; Vh463-2 and VL448-3
B14: humanized 16H11-derived Fab, VH AK484-6 / VL AK418-2 (Fab, V domains shown)
VH: QVQLVQSGAEVKKPGSSVKVSCKASGYDFSNYWMNWVRQAPGQGLEWMGQIYPGDGEIKYNQKFQGRVTITADESTSTAYMELSSLRSEDTAVYYCARDDYLRAMDIWGQGTMVTVSS
VL: DIQMTQSPSSLSASVGDRVTITCRASGNIHNYLAWYQQKPGKAPKFLLYSAKRLESGVPSRFSGSGSGTDYTLTISSLQPEDFATYYCQHFWSSPYTFGGGTKVEIK
notes: Measured as monovalent Fab; also called No. 42; VH484-6 and VL418-2

As a reminder, the Kd is the equilibrium constant for the complex coming apart.

In the assay the target is T1, Siglec-7-ECD (human, UniProt Q9Y286 19-353).
T1 construct: also called p75; AIRM
T1 sequence (Q9Y286 19-353 limits assumed): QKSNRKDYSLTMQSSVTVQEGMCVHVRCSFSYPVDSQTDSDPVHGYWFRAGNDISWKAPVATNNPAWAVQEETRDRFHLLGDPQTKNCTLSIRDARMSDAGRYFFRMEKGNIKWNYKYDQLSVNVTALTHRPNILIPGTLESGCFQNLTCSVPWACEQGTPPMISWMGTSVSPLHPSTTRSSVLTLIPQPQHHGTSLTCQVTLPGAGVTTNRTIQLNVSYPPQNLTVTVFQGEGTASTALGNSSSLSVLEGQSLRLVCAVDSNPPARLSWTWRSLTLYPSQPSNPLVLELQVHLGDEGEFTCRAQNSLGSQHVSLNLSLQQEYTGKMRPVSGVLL
The assay is described as follows: monovalent Fab; bio-layer interferometry (ForteBio) per Methods. On the technique in general: Biolayer interferometry detects binding as a change in optical thickness at a sensor tip.
B1 gave a Kd of less than 100 pM.

In turn, B2 showed a Kd of 150 to 250 pM.

B3 came in with a Kd of less than 75 pM.

The molecule B4 showed a Kd of less than 75 pM.

Molecule B5 yielded a Kd of more than 500 pM.

B6 came in with a dissociation constant Kd of less than 75 pM.

B7 gave a Kd of 50 to 100 pM.

For B8, the Kd is more than 500 pM.

In turn, B9 returned a dissociation constant (Kd) of more than 500 pM.

B10 came in with an equilibrium dissociation constant (Kd) of more than 500 pM.

On to B11, for which the dissociation constant Kd fell in the range of 100 to 150 pM.

Take B12: the Kd is less than 75 pM.

In the case of B13, the Kd was less than 75 pM.

With B14, the Kd is less than 100 pM.

These data come from patent US20190194323A1 (ALLAKOS, published 2019).
